Our source for the tumor inhibitory effect values is EP4785962A1, “ANTIBODY-DRUG CONJUGATE TARGETING TROP2, AND PREPARATION METHOD AND USE THEREFOR” (priority 2023, dated 2025).

This experiment concerns pancreatic cancer cell line BxPC3. Nature of the experiment: Mouse xenograft tumor model BxPC3. The note with it: low dose (3 mg/kg), intraperitoneal, single administration. The experiment is classed as in vivo, immunodeficient mice CB17-SCID. How it is done: • 1. Mice: immunodeficient mice CB17-SCID (Vital River) aged 6-8 weeks were placed in an SPF experimental environment for 3-5 days before the experiment to better adapt to the current living environment. In all experiments, the long and short diameters of the tumor were measured twice a week using a vernier caliper, and the tumor volume (mm^3) was calculated from the measured data. The calculation formula is as follows: Tumor volume(mm^3) = 0.5 × long diameter(mm) × short diameter(mm) × short diameter(mm) [formula] • 2. Human gastric cancer cell line NCI-N87 (ATCC) cells were resuspended in 1× PBS (Gibco, 10010049) at an appropriate concentration, and the tumor cells were implanted subcutaneously in the right abdomen of the mice at an inoculation amount of 2×10^6 /mouse. When the tumor volume reached 150-200 mm^3, the mice were divided into groups such that the average initial administration volume of each group was substantially the same. After grouping, different doses of antibody-drug conjugates hRs7-DXd, hRS7-MB3 and hTINA1-DXd, or control-drug conjugates IgG-MB3, IgG-DXd and IgG control were administered by intraperitoneal injection. […] Compared with hRS7-DXd, hRS7-MB3 has a stronger tumor inhibitory effect. […] The growth status of the mice was observed, and the changes in tumor volume of the mice were measured. […]

B1: hTINA1-DXd: control ADC: antibody hTINA1 conjugated with Linker-DXd, average DAR 4.3; TROP2-ADC from Daiichi Sankyo (conjugate, chains of the INN, looked up)
VH: QVQLVQSGAEVKKPGASVKVSCKASGYTFTTAGMQWVRQAPGQGLEWMGWINTHSGVPKYAEDFKGRVTISADTSTSTAYLQLSSLKSEDTAVYYCARSGFGSSYWYFDVWGQGTLVTVSS
VL: DIQMTQSPSSLSASVGDRVTITCKASQDVSTAVAWYQQKPGKAPKLLIYSASYRYTGVPSRFSGSGSGTDFTLTISSLQPEDFAVYYCQQHYITPLTFGQGTKLEIK
modifications: deruxtecan (Linker-DXd), DAR 4.3
notes: control ADC: antibody hTINA1 conjugated with Linker-DXd, average DAR 4.3; TROP2-ADC from Daiichi Sankyo
Take B1: the tumor inhibitory effect entry was “equivalent tumor inhibitory effects”.
